Results reported in patent US20140072613A1 (published 2014).

Tests used:
Test in all cases: cell-based or functional assay
CDK3/cyclinE(h) = CDK3/cyclinE(h) (human, UniProt Q00526 1-305; P24864 1-410)
Fms(h) = molecular target: T1, Fms(h) (human, UniProt P07333 538-972, limits assumed)
T1 sequence (looked up): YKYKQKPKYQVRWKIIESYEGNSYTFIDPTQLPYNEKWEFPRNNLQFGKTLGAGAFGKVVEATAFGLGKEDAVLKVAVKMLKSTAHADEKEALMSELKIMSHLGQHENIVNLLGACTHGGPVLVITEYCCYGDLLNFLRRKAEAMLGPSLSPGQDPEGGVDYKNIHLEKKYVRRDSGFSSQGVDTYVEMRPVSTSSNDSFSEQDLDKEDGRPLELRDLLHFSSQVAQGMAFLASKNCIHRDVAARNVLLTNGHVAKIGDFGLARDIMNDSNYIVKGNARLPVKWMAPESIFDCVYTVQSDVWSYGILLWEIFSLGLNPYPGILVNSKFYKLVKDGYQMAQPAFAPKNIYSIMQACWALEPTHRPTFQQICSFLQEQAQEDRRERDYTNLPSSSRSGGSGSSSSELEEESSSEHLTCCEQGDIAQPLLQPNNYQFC

SAPK4(h) = molecular target: T2, SAPK4(h) (human, UniProt O15264 1-365)
T2 sequence (looked up): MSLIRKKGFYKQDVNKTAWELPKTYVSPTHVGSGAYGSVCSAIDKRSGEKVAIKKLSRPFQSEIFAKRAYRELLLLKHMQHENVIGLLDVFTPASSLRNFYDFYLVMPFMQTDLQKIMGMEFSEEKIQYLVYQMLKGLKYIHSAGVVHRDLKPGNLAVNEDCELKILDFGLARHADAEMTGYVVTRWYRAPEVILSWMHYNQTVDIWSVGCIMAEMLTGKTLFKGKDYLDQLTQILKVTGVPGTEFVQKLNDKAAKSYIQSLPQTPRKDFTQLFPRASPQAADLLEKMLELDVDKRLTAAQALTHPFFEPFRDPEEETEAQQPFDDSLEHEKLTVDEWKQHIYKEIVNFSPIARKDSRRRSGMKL

SGK2(h) = molecular target: T3, SGK2(h) (human, UniProt Q9HBY8 1-367, limits assumed)
T3 sequence (looked up): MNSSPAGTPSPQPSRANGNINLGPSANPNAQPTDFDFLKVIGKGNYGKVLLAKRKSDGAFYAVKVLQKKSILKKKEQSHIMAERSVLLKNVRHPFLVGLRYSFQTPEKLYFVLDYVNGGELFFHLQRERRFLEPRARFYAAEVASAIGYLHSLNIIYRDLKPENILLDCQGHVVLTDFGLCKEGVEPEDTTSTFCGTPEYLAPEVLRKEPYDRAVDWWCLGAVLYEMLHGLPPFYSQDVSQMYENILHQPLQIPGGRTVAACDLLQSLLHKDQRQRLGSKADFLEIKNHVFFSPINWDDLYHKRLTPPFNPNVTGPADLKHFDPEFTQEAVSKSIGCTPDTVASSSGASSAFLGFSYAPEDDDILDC

PAK4(h) = PAK4(h) (human, UniProt O96013 1-591, limits assumed)
Sequence of PAK4(h) (O96013 whole entry): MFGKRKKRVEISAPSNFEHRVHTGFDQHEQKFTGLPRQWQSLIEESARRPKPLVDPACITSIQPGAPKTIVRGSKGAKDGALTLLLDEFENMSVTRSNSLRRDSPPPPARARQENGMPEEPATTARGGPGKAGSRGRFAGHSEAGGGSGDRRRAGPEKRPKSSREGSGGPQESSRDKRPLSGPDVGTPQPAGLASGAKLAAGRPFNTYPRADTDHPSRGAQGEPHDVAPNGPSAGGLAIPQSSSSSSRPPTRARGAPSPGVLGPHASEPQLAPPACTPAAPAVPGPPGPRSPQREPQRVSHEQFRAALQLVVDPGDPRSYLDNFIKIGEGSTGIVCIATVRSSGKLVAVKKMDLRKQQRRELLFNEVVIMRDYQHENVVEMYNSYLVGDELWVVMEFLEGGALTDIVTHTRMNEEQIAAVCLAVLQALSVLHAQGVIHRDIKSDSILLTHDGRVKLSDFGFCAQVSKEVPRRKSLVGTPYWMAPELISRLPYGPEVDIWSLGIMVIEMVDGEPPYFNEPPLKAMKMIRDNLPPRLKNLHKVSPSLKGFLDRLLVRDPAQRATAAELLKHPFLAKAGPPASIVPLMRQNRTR

CK1γ3(h) = CK1γ3(h) (human, UniProt Q9Y6M4 1-447)
Sequence of CK1γ3(h) (Q9Y6M4 whole entry): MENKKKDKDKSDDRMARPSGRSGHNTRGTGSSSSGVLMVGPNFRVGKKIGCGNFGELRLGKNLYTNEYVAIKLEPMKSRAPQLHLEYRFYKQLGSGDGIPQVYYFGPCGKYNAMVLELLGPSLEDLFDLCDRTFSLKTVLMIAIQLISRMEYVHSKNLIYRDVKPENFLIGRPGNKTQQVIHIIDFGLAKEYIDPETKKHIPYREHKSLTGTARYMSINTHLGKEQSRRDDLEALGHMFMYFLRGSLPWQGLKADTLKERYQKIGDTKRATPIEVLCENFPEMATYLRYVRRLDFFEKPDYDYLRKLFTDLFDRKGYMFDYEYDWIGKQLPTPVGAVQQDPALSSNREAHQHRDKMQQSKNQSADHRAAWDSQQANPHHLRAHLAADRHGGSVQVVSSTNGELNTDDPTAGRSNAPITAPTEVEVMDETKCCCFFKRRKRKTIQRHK

LIMK1(h) = LIMK1(h) (human, UniProt P53667 285-638, limits assumed)
Sequence of LIMK1(h) (P53667 285-638 limits assumed): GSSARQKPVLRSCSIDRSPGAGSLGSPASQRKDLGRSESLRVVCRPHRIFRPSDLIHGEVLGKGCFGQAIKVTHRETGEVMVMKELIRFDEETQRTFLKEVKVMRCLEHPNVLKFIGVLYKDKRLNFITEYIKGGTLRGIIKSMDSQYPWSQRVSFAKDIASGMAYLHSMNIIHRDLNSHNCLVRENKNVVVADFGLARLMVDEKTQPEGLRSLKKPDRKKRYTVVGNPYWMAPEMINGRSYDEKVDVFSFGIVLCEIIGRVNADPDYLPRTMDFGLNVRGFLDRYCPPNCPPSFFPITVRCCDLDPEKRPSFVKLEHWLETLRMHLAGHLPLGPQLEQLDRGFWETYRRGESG

TAO3(h) = molecular target: T4, TAO3(h) (human, UniProt Q9H2K8 1-314, limits assumed)
T4 sequence (looked up): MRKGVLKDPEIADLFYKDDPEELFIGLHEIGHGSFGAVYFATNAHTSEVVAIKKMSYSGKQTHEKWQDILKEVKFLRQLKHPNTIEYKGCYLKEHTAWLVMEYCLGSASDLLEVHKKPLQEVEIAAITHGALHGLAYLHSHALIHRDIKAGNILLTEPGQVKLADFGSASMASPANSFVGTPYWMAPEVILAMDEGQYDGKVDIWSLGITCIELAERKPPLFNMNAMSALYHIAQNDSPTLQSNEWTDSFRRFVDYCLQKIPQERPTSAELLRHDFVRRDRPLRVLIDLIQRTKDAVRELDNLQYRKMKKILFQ

IR(h), activated = IR(h), activated (human, UniProt P06213 1005-1310, limits assumed)
Sequence of IR(h), activated (P06213 1005-1310 limits assumed): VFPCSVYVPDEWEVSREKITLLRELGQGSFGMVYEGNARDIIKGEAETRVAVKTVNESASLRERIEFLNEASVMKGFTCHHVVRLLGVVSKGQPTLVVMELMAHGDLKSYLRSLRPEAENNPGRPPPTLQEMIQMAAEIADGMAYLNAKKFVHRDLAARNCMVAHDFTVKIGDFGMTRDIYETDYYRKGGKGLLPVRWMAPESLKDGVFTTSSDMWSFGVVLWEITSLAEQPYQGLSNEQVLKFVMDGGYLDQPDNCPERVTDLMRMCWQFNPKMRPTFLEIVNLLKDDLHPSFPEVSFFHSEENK

IKKα(h) = molecular target: T5, IKKα(h) (human, UniProt O15111 1-745)
T5 sequence (looked up): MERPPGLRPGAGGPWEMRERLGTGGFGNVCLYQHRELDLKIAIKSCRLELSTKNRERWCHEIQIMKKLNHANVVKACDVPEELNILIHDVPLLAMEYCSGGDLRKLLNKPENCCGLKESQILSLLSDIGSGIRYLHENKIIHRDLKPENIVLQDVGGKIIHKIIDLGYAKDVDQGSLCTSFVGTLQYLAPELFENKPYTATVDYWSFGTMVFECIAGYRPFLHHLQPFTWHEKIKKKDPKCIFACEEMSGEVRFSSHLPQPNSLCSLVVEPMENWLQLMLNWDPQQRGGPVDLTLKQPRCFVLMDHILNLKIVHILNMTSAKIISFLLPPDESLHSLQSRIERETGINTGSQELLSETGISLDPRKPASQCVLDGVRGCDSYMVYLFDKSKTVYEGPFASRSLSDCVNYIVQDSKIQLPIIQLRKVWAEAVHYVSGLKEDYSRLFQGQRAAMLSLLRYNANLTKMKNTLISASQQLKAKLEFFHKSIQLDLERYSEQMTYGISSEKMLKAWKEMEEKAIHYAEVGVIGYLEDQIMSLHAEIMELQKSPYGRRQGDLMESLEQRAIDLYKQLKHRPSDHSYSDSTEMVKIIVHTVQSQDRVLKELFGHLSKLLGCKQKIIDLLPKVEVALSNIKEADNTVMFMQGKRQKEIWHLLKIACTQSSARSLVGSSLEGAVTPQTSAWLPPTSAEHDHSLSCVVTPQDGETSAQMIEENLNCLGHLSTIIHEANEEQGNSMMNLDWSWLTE

MSK1(h) = MSK1(h) (human, UniProt O75582 1-802)
Sequence of MSK1(h) (O75582 whole entry): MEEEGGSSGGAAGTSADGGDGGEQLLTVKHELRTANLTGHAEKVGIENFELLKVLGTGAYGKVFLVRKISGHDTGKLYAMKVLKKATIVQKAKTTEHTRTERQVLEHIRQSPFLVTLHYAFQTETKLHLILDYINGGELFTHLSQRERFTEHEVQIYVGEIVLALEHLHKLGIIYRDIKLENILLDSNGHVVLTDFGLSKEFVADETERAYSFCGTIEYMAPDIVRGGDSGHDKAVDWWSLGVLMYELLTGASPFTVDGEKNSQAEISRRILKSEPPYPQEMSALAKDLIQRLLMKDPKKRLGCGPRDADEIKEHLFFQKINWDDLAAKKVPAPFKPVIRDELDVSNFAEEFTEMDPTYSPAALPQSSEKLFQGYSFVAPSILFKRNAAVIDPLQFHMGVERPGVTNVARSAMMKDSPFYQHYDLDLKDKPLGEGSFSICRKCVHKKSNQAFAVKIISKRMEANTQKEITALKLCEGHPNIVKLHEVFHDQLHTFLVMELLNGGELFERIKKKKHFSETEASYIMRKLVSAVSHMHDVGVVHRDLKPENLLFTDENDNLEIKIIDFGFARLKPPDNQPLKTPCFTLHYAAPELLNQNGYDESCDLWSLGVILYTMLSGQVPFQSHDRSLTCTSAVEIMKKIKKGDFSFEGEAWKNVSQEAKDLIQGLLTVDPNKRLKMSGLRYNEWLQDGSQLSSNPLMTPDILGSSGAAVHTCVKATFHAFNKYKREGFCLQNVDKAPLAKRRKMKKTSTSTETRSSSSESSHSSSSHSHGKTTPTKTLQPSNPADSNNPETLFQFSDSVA

CDK9/cyclin T1(h) = CDK9/cyclin T1(h) (human, UniProt P50750 1-372; O60563 1-726, limits assumed)
Sequence of CDK9/cyclin T1(h) (P50750 whole entry, chain 1 of 2): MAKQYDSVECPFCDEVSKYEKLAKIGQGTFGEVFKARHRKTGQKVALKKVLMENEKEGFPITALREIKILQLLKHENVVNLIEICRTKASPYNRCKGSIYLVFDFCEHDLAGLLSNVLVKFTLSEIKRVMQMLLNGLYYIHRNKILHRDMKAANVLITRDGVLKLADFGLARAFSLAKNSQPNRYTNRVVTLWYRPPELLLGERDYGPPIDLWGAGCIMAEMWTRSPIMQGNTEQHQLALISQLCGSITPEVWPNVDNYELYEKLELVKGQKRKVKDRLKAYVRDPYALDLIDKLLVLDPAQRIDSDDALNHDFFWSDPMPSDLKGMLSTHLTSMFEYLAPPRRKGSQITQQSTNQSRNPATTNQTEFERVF
Sequence of CDK9/cyclin T1(h) (O60563 whole entry, chain 2 of 2): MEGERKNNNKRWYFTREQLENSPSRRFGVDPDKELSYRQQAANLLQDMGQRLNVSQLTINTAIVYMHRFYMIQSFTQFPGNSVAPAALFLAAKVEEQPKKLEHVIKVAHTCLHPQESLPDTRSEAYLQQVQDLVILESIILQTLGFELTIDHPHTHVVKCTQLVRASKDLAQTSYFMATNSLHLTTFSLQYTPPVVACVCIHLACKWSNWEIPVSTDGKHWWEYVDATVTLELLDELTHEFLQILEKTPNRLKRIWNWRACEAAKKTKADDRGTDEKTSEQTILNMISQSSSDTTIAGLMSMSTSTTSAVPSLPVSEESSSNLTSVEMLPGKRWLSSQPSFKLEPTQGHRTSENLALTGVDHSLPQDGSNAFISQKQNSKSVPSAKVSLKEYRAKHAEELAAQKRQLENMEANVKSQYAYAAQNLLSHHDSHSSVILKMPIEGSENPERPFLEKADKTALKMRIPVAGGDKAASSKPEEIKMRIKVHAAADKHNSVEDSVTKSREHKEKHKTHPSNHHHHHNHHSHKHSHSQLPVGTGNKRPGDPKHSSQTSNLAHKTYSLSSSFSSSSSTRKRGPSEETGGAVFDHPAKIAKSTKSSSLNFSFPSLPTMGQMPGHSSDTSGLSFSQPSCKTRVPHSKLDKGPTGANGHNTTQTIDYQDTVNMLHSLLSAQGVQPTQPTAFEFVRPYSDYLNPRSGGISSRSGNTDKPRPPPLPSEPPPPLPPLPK

cKit(D816V)(h) = cKit(D816V)(h) (human, UniProt P10721 544-976)
Sequence of cKit(D816V)(h) (P10721 544-976 D816V): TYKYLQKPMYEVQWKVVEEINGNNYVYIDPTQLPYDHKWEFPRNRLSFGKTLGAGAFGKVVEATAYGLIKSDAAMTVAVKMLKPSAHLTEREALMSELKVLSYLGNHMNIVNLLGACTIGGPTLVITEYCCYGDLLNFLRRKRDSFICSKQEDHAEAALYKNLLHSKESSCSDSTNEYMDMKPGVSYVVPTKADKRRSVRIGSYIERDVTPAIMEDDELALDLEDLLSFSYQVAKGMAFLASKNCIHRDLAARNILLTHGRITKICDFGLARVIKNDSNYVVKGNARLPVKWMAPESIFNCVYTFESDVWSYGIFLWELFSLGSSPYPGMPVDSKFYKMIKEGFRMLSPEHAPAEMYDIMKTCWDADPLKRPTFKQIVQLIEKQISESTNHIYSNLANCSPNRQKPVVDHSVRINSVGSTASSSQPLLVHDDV

Question: FAKLAARLYRKALARQLGVAA [MMI-0300] was tested. Which “% activity, 100 µM” value (CDK3/cyclinE(h)) did it give?
Answer: Its value is 94%.

Question: What about the “% activity, 100 µM” value (Fms(h)) of the same binder?
Answer: The value was 45%.

Question: And the “% activity, 100 µM” value (SAPK4(h))?
Answer: Its value is 96%.

Question: What about the “% activity, 100 µM” value (SGK2(h)) of the same binder?
Answer: The value was 56%.

Question: And the “% activity, 100 µM” value (PAK4(h))?
Answer: Its value is 94%.

Question: And the “% activity, 100 µM” value (CK1γ3(h))?
Answer: Its value is 125%.

Question: What about the “% activity, 100 µM” value (LIMK1(h)) of the same binder?
Answer: The value was 88%.

Question: What about the “% activity, 100 µM” value (TAO3(h)) of the same binder?
Answer: Its value is 77%.

Question: What about the “% activity, 100 µM” value (IR(h), activated) of the same binder?
Answer: Its value is 79%.

Question: And the “% activity, 100 µM” value (IKKα(h))?
Answer: The value was 93%.

Question: And the “% activity, 100 µM” value (MSK1(h))?
Answer: The value was 32%.

Question: And the “% activity, 100 µM” value (CDK9/cyclin T1(h))?
Answer: The value was 91%.

Question: What about the “% activity, 100 µM” value (cKit(D816V)(h)) of the same binder?
Answer: The value was 60%.

Question: KAFAKLAARLYRKALARQLGVAA [MMI-0400] was tested. Which “% activity, 100 µM” value (CDK3/cyclinE(h)) did it give?
Answer: The value was 92%.

Question: What about the “% activity, 100 µM” value (Fms(h)) of the same binder?
Answer: The value was 37%.

Question: And the “% activity, 100 µM” value (SAPK4(h))?
Answer: The value was 91%.

Question: And the “% activity, 100 µM” value (SGK2(h))?
Answer: The value was 98%.

Question: What about the “% activity, 100 µM” value (PAK4(h)) of the same binder?
Answer: Its value is 89%.

Question: What about the “% activity, 100 µM” value (CK1γ3(h)) of the same binder?
Answer: Its value is 115%.

Question: What about the “% activity, 100 µM” value (LIMK1(h)) of the same binder?
Answer: Its value is 92%.

Question: And the “% activity, 100 µM” value (TAO3(h))?
Answer: The value was 67%.

Question: What about the “% activity, 100 µM” value (IR(h), activated) of the same binder?
Answer: The value was 59%.

Question: What about the “% activity, 100 µM” value (IKKα(h)) of the same binder?
Answer: The value was 87%.

Question: What about the “% activity, 100 µM” value (MSK1(h)) of the same binder?
Answer: Its value is 28%.

Question: What about the “% activity, 100 µM” value (CDK9/cyclin T1(h)) of the same binder?
Answer: The value was 235%.

Question: What about the “% activity, 100 µM” value (cKit(D816V)(h)) of the same binder?
Answer: The value was 35%.
